Source: paper PMC4140853 (PLoS Pathogens, 2014)

Legend:
[1] = molecular target: HLA-DQ2 (A1*0501/B1*0201) with the CLIP1 peptide covalently linked to the beta chain, soluble, Fos-Jun leucine zipper; test: BLI
[2] = molecular target: HLA-DQ2 (A1*0501/B1*0201) with the CLIP1 peptide covalently linked to the beta chain, soluble, Fos-Jun leucine zipper; test: BLI; Octet RED96; site-specifically biotinylated HLA-DQ2 (CLIP1) immobilised on streptavidin (SA) tips; analyte gp42 or preformed gHgL/gp42 complex; equilibrium (steady state) analysis of the same data
[3] = molecular target: T1, EBV gHgL (soluble gH residues 18-679 / gL residues 24-137 heterodimer) (Epstein-Barr virus, UniProt P03231;P03212); test: cell-based or functional assay
[4] = molecular target: T1, EBV gHgL (soluble gH residues 18-679 / …); test: BLI; settings: both partners purified
[5] = molecular target: T1, EBV gHgL (soluble gH residues 18-679 / …); test: BLI; settings: both partners purified; remark: listed apart in the source
[6] = molecular target: T1, EBV gHgL (soluble gH residues 18-679 / …); test: BLI; Octet RED96; biotinylated gHgL immobilised on streptavidin (SA) tips, soluble gp42 as analyte; equilibrium analysis of the same data; settings: both partners purified
[7] = molecular target: T1, EBV gHgL (soluble gH residues 18-679 / …); test: SEC; Superdex 200 gel filtration of purified proteins and their mixtures; 20 mM Tris, 150 mM NaCl, pH 7.4; peak components verified by SDS-PAGE (data not shown); settings: both partners purified

Molecule	KD1 (2:1 heterogeneous ligand fit, primary component) [1] [nM]	KD2 (2:1 heterogeneous ligand fit, secondary component) [1] [nM]	Kd [2] [nM]	Kd [5] [nM]	Kd [6] [nM]	koff [5] [s⁻¹]	kon [5] [M⁻¹ s⁻¹]	also measured
EBV gp42 C114S single mutant, soluble (residues 33-223) (from UniProt P03205 33-223) (natural protein)	88.8	3.45	97	–	–	–	–	–
EBV gp42 C114S/I159C double mutant (referred to as I159C), soluble (residues 33-223) (from UniProt P03205 33-223) (natural protein)	59	1.25	29	–	–	–	–	–
EBV gp42 I159C (C114S/I159C), reduced with TCEP and alkylated with iodoacetamide (IAA) (natural protein, introduced cysteine 159 reduced with TCEP and alkylated with iodoacetamide (IAA)) GGGRVAAAAITWVPKPNVEVWPVDPPPPVNFNKTAEQEYGDKEVKLPHWTPTLHTFQVPQNYTKANCTYCNTREYTFSYKGSCFYFTKKKHTWNGCFQACAELYPCTYFYGPTPDILPVVTRNLNACESLWVGVYRVGEGNWTSLDGGTFKVYQIFGSHCTYVSKFSTVPVSHHECSFLKPCLCVSQRSNS	–	–	–	–	–	–	–	virus-free cell-cell fusion (luciferase) of CHO cells expressing gB and gHgL with Daudi B cells, triggered by 0.1 or 1.0 µg soluble gp42 protein; activity relative to wt gp42 [3]: < 10 % of wild type
EBV gp42 wild type, soluble (residues 33-223) (natural protein, also called gp42 w.t; wt gp42; source: High Five insect cells (baculovirus), secreted, purified (Talon or Ni-NTA, Superdex 200)) GGGRVAAAAITWVPKPNVEVWPVDPPPPVNFNKTAEQEYGDKEVKLPHWTPTLHTFQVPQNYTKANCTYCNTREYTFSYKGCCFYFTKKKHTWNGCFQACAELYPCTYFYGPTPDILPVVTRNLNAIESLWVGVYRVGEGNWTSLDGGTFKVYQIFGSHCTYVSKFSTVPVSHHECSFLKPCLCVSQRSNS	–	–	–	1.41	4.1	–	–	t1/2 for dissociation [4]: ~30 min; stoichiometry N [7]: 1 gp42 per gHgL
EBV gp42 C114S single mutant, soluble (residues 33-223) (natural protein, source: High Five insect cells (baculovirus), secreted, purified (Talon or Ni-NTA, Superdex 200)) GGGRVAAAAITWVPKPNVEVWPVDPPPPVNFNKTAEQEYGDKEVKLPHWTPTLHTFQVPQNYTKANCTYCNTREYTFSYKGSCFYFTKKKHTWNGCFQACAELYPCTYFYGPTPDILPVVTRNLNAIESLWVGVYRVGEGNWTSLDGGTFKVYQIFGSHCTYVSKFSTVPVSHHECSFLKPCLCVSQRSNS	–	–	–	1.29	6.3	0.000529	409000	–
EBV gp42 C114S/I159C double mutant (referred to as I159C), soluble (residues 33-223) (natural protein, source: High Five insect cells (baculovirus), secreted, purified (Talon or Ni-NTA, Superdex 200)) GGGRVAAAAITWVPKPNVEVWPVDPPPPVNFNKTAEQEYGDKEVKLPHWTPTLHTFQVPQNYTKANCTYCNTREYTFSYKGSCFYFTKKKHTWNGCFQACAELYPCTYFYGPTPDILPVVTRNLNACESLWVGVYRVGEGNWTSLDGGTFKVYQIFGSHCTYVSKFSTVPVSHHECSFLKPCLCVSQRSNS	–	–	–	0.77	13	0.000295	381000	–
